Test results reported in patent US20250171542A1 (ADEPT THERAPEUTICS, published 2025).

Assays:
[1] = target: T1, human PD-L1-His (Sino Biological, Cat #10084-H08H) (human, UniProt Q9NZQ7 19-238); assay: competition ELISA (epitope binning): coated human PD-L1-His, antibody pre-incubated, then biotinylated Avelumab (competitor), detection with HRP-avidin
T1 construct: Bought protein; also called human PD-L1 ECD-His; recombinant human PD-L1-His protein; not shown: His tag

[2] = target: T2, human PD-L1 expressed on cell surface (human, UniProt Q9NZQ7 19-290); assay: cell-based or functional assay
[3] = target: T3, CD80 (Sino Biological, Cat #10698-H08H) (UniProt P33681 35-242); assay: ELISA
T3 sequence (looked up): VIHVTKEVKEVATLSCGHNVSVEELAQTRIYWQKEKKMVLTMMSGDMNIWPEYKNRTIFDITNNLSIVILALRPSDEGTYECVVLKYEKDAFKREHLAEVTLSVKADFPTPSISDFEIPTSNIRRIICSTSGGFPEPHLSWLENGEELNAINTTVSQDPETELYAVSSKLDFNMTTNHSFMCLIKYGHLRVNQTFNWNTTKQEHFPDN

[4] = target: T4, BH-H2 (Sino Biological, Cat #11559-H08H) (UniProt O75144 19-258); assay: ELISA
T4 sequence (looked up): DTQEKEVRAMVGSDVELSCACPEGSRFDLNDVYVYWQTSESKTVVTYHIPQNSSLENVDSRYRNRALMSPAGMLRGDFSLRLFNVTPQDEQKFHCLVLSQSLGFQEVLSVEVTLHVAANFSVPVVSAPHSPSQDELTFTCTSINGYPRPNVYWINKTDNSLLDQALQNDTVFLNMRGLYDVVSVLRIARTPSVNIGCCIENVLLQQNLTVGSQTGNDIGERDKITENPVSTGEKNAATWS

[5] = target: T5, rat PD-L1 (Sino Biological, Cat #80450-R08H) (rat, UniProt D4AE25 19-239); assay: ELISA
T5 construct: not shown: The vendor's polyhistidine tag

[6] = target: T6, CD86 (Sino Biological, Cat #10699-H08H) (UniProt P42081 24-245); assay: ELISA
T6 sequence (looked up): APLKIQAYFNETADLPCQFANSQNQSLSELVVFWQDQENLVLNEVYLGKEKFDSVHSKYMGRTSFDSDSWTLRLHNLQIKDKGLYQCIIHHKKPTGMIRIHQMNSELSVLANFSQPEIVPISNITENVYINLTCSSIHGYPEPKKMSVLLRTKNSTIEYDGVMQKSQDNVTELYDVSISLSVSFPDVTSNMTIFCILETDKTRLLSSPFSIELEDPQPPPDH

[7] = target: T7, canine PD-L1 (Acro Biosystems, Cat #PDL-C52H4) (canine, UniProt E2RKZ5 19-236); assay: ELISA
T7 construct: not shown: The vendor's tag, probably a polyhistidine tag
T7 sequence: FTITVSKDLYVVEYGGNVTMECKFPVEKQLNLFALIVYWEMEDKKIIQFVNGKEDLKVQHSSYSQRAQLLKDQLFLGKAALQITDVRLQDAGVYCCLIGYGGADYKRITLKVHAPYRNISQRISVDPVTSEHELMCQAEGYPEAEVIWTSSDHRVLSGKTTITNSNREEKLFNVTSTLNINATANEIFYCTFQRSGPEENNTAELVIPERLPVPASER

[8] = target: T8, human PD-L1-mFc fusion protein (Sino Biological, Cat #10084-H05H) (human, UniProt Q9NZQ7 19-239); assay: competition ELISA, coated human PD-L1-mFc, competitor human PD-1-His-hFc-Biotin
T8 construct: Bought protein; also called human PD-L1 mouse Fc fusion protein; not shown: mouse Fc
Method: Briefly, microplates were precoated with […] of human PD-L1-mFc fusion protein (Sino Biological, Cat #10084-H05H) diluted in 1×PBS (GIBCO) and incubated overnight at 4° C.; Plates were washed four times with 300 μl/well washing buffer (1×PBST, diluted from 20×PBST (Thermo Scientific) with distilled water)) and then blocked with 300 μl/well of blocking buffer (1×PBST/3% BSA) for 2 hours at RT on shaker (100 rpm). […] Plates were washed and added with 100 μl/well TMB substrate for color development at room temperature in dark for up to 10 minutes. After addition of 50 μl/well of stop solution (1N H₂SO₄), plates were read at 450 nm on a plate reader (SpectraMax M5).

[9] = target: T2, human PD-L1 expressed on cell surface; assay: cell-based or functional assay; remark: listed apart in the source

T2 sequence (Q9NZQ7 19-290 limits assumed): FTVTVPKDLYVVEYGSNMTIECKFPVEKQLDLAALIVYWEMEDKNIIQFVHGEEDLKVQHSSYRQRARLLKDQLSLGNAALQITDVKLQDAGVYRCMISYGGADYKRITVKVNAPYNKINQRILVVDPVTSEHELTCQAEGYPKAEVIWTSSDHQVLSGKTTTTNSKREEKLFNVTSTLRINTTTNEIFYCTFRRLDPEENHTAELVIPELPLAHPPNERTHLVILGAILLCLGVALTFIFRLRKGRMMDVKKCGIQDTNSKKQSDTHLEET
T8 sequence (Q9NZQ7 19-239 limits assumed): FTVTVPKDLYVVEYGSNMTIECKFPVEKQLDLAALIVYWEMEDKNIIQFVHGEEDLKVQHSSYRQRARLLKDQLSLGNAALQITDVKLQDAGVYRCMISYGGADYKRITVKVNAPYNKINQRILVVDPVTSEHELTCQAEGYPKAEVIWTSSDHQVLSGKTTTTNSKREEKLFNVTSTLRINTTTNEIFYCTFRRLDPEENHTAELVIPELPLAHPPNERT
T5 sequence (D4AE25 entry or part of it R08H R08H limits assumed): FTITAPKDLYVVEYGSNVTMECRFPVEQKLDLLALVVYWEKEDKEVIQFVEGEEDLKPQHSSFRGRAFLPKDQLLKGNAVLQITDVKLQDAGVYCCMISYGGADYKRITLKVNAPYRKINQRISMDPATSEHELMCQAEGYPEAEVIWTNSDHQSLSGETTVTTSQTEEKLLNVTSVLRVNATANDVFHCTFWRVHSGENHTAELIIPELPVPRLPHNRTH
T1 sequence (Q9NZQ7 19-238): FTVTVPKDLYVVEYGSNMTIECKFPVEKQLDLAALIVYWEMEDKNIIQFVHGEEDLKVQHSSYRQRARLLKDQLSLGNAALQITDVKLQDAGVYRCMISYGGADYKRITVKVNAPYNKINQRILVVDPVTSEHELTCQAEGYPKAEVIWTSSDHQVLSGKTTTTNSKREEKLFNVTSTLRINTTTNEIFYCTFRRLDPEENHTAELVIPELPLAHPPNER

B1: 56H3 (antibody, human IgG1, V domains shown)
VH: QEQLVESGGGLVQPEGSLTLTCTASEFSFSNNYYMSWVRQAPGKGLEWLGSIGIGSGITDYASWAKGRFTISKASSTTVTLQMTTLTAADTAIYFCARWTSGGGGFGLWGPGTLVTVSS
VL: QVLTQTSSPVSAAVGGTVTINCQSSQTIYSDYLFWYQQKPGQPPKLLIYQTSTLASGVPSRFSGSGSGTQFTLTISGVQCDDAATYYCQGYYSGYIWTFGGGTEVVVN
[1]
  IC50 (read off the curve): ~0.1 µg/mL
[2]
  IC50 (nM), Promega PD-1/PD-L1 blockade reporter assay: 0.36 nM
[3]
  binding result: no binding
[4]
  binding result: no binding
[5]
  binding result: no binding
[6]
  binding result: no binding
[7]
  binding result: no binding
[8]
  IC50: 2100 pM

B2: 28B3 (antibody, human IgG1, V domains shown)
VH: QSVEESGGRLVTPGTPLTLSCTASGFSLSSYYMIWVRQAPGKGLEYIGYVYTGSGNTWYASWAKGRFAISKASTTVDLMITSPTTEDTATYFCASGADGVYDWGWDIWGPGTLVTVSL
VL: DIVMTQTPASVEAAVGDTVTIKCQASQSIYSLLAWYQQKPGQRPKLLIAGASNLESGVPSRFSGSGSGTEYTLTISALECADAATYYCQNNYDSGRIYGLAFGGGTEVVVK
[2]
  IC50 (nM), Promega PD-1/PD-L1 blockade reporter assay: 0.24 nM
[3]
  binding result: no binding
[4]
  binding result: no binding
[5]
  binding result: no binding
[6]
  binding result: no binding
[7]
  binding result: no binding
[8]
  IC50: 1500 pM
[9]
  IC50 (nM), Promega PD-1/PD-L1 blockade reporter assay, another assay: 0.33 nM
